Consider 125 sequences from the supplement of paper PMC9112550, “Optimization of the antimicrobial peptide Bac7 by deep mutational scanning” (BMC Biology, 2022).
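Also: peptides expressed intracellularly from a pBAD plasmid library in pooled LB shake-flask culture, induced with 0.3% L-arabinose, DNA abundance read by NGS, three biological replicates, DESeq2 with apeglm shrinkage.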

The subject of this data set is Escherichia coli TOP10. Put plainly: shrunken log2 fold change of peptide-encoding DNA abundance (4.5 h post-induction vs induction); higher = less antimicrobial activity (less host growth inhibition). The note with it: time post-induction: 4.5 h; library: site-saturation at positions 5, 18, 19, 20.
On to RRIRQRPPRLPRPRPRPNALPRP, for which the “shrunken log2 fold change” value was 0.023. In the case of RRIRPRPPRLPRPRPRPAIHPRP, the “shrunken log2 fold change” value was -0.196. Regarding RRIRPRPPRLPRPRPRPNQPPRP, the “shrunken log2 fold change” value was 0.0225. For the sequence RRIRTRPPRLPRPRPRPPQEPRP, the “shrunken log2 fold change” value was 0.0383. As for RRIRFRPPRLPRPRPRPSINPRP, the figure is -0.625. Take RRIRDRPPRLPRPRPRPHWAPRP: the “shrunken log2 fold change” value was -0.00226.

On to RRIRCRPPRLPRPRPRPLLMPRP, for which the “shrunken log2 fold change” value was -0.195.

As to RRIRCRPPRLPRPRPRPIRCPRP, the “shrunken log2 fold change” value was -0.00208. RRIRPRPPRLPRPRPRPQTYPRP: the “shrunken log2 fold change” value is -0.256. Under RRIRWRPPRLPRPRPRPAIYPRP stands -0.259; under RRIRQRPPRLPRPRPRPHIVPRP, -0.225; under RRIRGRPPRLPRPRPRPPGDPRP, 1.18. On to RRIRSRPPRLPRPRPRPKCIPRP, for which the “shrunken log2 fold change” value was -0.256. Turning to RRIRVRPPRLPRPRPRPKFLPRP, the “shrunken log2 fold change” value is -0.00678. With RRIRHRPPRLPRPRPRPACEPRP, the “shrunken log2 fold change” value is 0.0343. For the sequence RRIRQRPPRLPRPRPRPWISPRP, the “shrunken log2 fold change” value is -0.0848.

On to RRIRQRPPRLPRPRPRPDSIPRP, for which the “shrunken log2 fold change” value is -0.00697. Regarding RRIRIRPPRLPRPRPRPNPKPRP, the “shrunken log2 fold change” value is 0.0309. For the sequence RRIRFRPPRLPRPRPRPWPLPRP, the “shrunken log2 fold change” value is -0.0977.

For the sequence RRIRTRPPRLPRPRPRPVRQPRP, the “shrunken log2 fold change” value was determined as 0.264.

For the sequence RRIRYRPPRLPRPRPRPAWSPRP, the “shrunken log2 fold change” value is -0.292. For RRIRMRPPRLPRPRPRPLQNPRP, the “shrunken log2 fold change” value amounted to 1.2. For the sequence RRIRCRPPRLPRPRPRPKGNPRP, the “shrunken log2 fold change” value was -0.31.

On to RRIRIRPPRLPRPRPRPPMPPRP, for which the “shrunken log2 fold change” value was -0.0926. As for RRIRKRPPRLPRPRPRPTAWPRP, the figure is 1.13. As for RRIRSRPPRLPRPRPRPQSGPRP, the figure is -0.101; as for RRIRLRPPRLPRPRPRPSIRPRP, -0.727.

With RRIRKRPPRLPRPRPRPLYKPRP, the “shrunken log2 fold change” value is -0.112. Regarding RRIRCRPPRLPRPRPRPYNRPRP, the “shrunken log2 fold change” value was -0.0425. As for RRIRFRPPRLPRPRPRPWRIPRP, the “shrunken log2 fold change” value was -0.0447. Under RRIRWRPPRLPRPRPRPQCTPRP stands 0.11. As for RRIRGRPPRLPRPRPRPHQEPRP, the figure is 0.305. As to RRIRWRPPRLPRPRPRPHNSPRP, the “shrunken log2 fold change” value was -0.394.

As for RRIRFRPPRLPRPRPRPLGNPRP, the “shrunken log2 fold change” value was -0.215. For the sequence RRIRGRPPRLPRPRPRPPHEPRP, the “shrunken log2 fold change” value was 0.773.

Regarding RRIRYRPPRLPRPRPRPGCWPRP, the “shrunken log2 fold change” value stood at 0.289. For the sequence RRIRMRPPRLPRPRPRPTISPRP, the “shrunken log2 fold change” value was found to be 0.0688. RRIRERPPRLPRPRPRPHQTPRP: the “shrunken log2 fold change” value is -0.0225. For the sequence RRIRQRPPRLPRPRPRPIIDPRP, the “shrunken log2 fold change” value is -0.199. Turning to RRIRARPPRLPRPRPRPTVDPRP, the “shrunken log2 fold change” value is 0.732.

RRIRARPPRLPRPRPRPKYNPRP: the “shrunken log2 fold change” value is -0.411. As to RRIRPRPPRLPRPRPRPTAKPRP, the “shrunken log2 fold change” value is 0.152.

Turning to RRIRPRPPRLPRPRPRPSNHPRP, the “shrunken log2 fold change” value was -0.497. As to RRIRERPPRLPRPRPRPSLTPRP, the “shrunken log2 fold change” value is -0.699. For the sequence RRIRKRPPRLPRPRPRPFAIPRP, the “shrunken log2 fold change” value is -0.00592. With RRIRGRPPRLPRPRPRPWDGPRP, the “shrunken log2 fold change” value was determined as 0.486.

Turning to RRIRIRPPRLPRPRPRPYENPRP, the “shrunken log2 fold change” value is -0.255. As for RRIRIRPPRLPRPRPRPYPQPRP, the figure is -0.974.

On to RRIRMRPPRLPRPRPRPLDPPRP, for which the “shrunken log2 fold change” value was 0.146.

As for RRIRPRPPRLPRPRPRPSFIPRP, the “shrunken log2 fold change” value is -0.601.

For RRIRMRPPRLPRPRPRPAPFPRP, the “shrunken log2 fold change” value amounted to 0.575. As for RRIRVRPPRLPRPRPRPYMEPRP, the figure is -0.16; as for RRIRPRPPRLPRPRPRPPCAPRP, 0.925. On to RRIRQRPPRLPRPRPRPHQEPRP, for which the “shrunken log2 fold change” value is -0.00692. Regarding RRIRMRPPRLPRPRPRPGNTPRP, the “shrunken log2 fold change” value was -0.246. Turning to RRIRNRPPRLPRPRPRPMMHPRP, the “shrunken log2 fold change” value is -0.25. Under RRIRTRPPRLPRPRPRPKHDPRP stands -0.099; under RRIRDRPPRLPRPRPRPTLYPRP, 0.26.

RRIRWRPPRLPRPRPRPIDEPRP: the “shrunken log2 fold change” value was 0.0867. Regarding RRIRPRPPRLPRPRPRPVSQPRP, the “shrunken log2 fold change” value is -0.0764.

On to RRIRARPPRLPRPRPRPSQMPRP, for which the “shrunken log2 fold change” value amounted to 0.0732. As to RRIRHRPPRLPRPRPRPRSVPRP, the “shrunken log2 fold change” value is 0.0714.

Consider RRIRPRPPRLPRPRPRPQISPRP, for which the “shrunken log2 fold change” value was -0.221. Take RRIRCRPPRLPRPRPRPMPMPRP: the “shrunken log2 fold change” value is -0.174. As to RRIRKRPPRLPRPRPRPTAFPRP, the “shrunken log2 fold change” value turned out to be 0.355. As for RRIRKRPPRLPRPRPRPFQYPRP, the figure is -0.284; as for RRIRNRPPRLPRPRPRPWRMPRP, 0.0039; as for RRIRFRPPRLPRPRPRPMVRPRP, 0.0406. Turning to RRIRRRPPRLPRPRPRPVFSPRP, the “shrunken log2 fold change” value is -0.0171.

In the case of RRIRKRPPRLPRPRPRPAFTPRP, the “shrunken log2 fold change” value turned out to be 0.021. In the case of RRIRCRPPRLPRPRPRPKVYPRP, the “shrunken log2 fold change” value was -0.167. As to RRIRTRPPRLPRPRPRPVQQPRP, the “shrunken log2 fold change” value turned out to be 0.0144. In the case of RRIRMRPPRLPRPRPRPVRYPRP, the “shrunken log2 fold change” value turned out to be 0.64. For RRIRFRPPRLPRPRPRPLINPRP, the “shrunken log2 fold change” value is -0.421. On to RRIRARPPRLPRPRPRPADLPRP, for which the “shrunken log2 fold change” value came to 0.729. Under RRIRDRPPRLPRPRPRPQCHPRP stands -0.0594; under RRIRKRPPRLPRPRPRPRNFPRP, 0.731; under RRIRIRPPRLPRPRPRPPRAPRP, 0.417. Consider RRIRERPPRLPRPRPRPHPGPRP, for which the “shrunken log2 fold change” value worked out at 0.033.

RRIRPRPPRLPRPRPRPMEPPRP: the “shrunken log2 fold change” value was -0.153. On to RRIRHRPPRLPRPRPRPFIAPRP, for which the “shrunken log2 fold change” value is -0.272. As for RRIRIRPPRLPRPRPRPTLWPRP, the “shrunken log2 fold change” value came out at 0.22. Consider RRIRERPPRLPRPRPRPKQCPRP, for which the “shrunken log2 fold change” value is -0.354. Under RRIRTRPPRLPRPRPRPARAPRP stands 0.786. As for RRIRCRPPRLPRPRPRPRSFPRP, the “shrunken log2 fold change” value was -0.342. RRIRARPPRLPRPRPRPKINPRP: the “shrunken log2 fold change” value is -0.0292. For the sequence RRIRQRPPRLPRPRPRPSGDPRP, the “shrunken log2 fold change” value was -0.00374.

Take RRIRRRPPRLPRPRPRPGQDPRP: the “shrunken log2 fold change” value was found to be 0.112. As for RRIRVRPPRLPRPRPRPYCHPRP, the figure is -0.0116; as for RRIRKRPPRLPRPRPRPRHKPRP, 0.458. As for RRIRERPPRLPRPRPRPINSPRP, the figure is -0.157; as for RRIRGRPPRLPRPRPRPVGTPRP, 0.304; as for RRIRWRPPRLPRPRPRPRNKPRP, 0.0794. Under RRIRHRPPRLPRPRPRPMLTPRP stands 0.0372. As to RRIRQRPPRLPRPRPRPNHAPRP, the “shrunken log2 fold change” value is -0.474. Regarding RRIRPRPPRLPRPRPRPWCNPRP, the “shrunken log2 fold change” value is -0.239.

As to RRIRLRPPRLPRPRPRPWNCPRP, the “shrunken log2 fold change” value was -0.493. RRIRMRPPRLPRPRPRPTTCPRP: the “shrunken log2 fold change” value was found to be 0.0613.

On to RRIRERPPRLPRPRPRPFVTPRP, for which the “shrunken log2 fold change” value is -0.865. As to RRIRQRPPRLPRPRPRPPWMPRP, the “shrunken log2 fold change” value is 0.172.

With RRIRFRPPRLPRPRPRPTACPRP, the “shrunken log2 fold change” value was -0.118. For the sequence RRIRIRPPRLPRPRPRPGIIPRP, the “shrunken log2 fold change” value was -0.0859. Take RRIRDRPPRLPRPRPRPQAVPRP: the “shrunken log2 fold change” value was 0.164. On to RRIRGRPPRLPRPRPRPCMHPRP, for which the “shrunken log2 fold change” value is 0.363. Turning to RRIRRRPPRLPRPRPRPSLTPRP, the “shrunken log2 fold change” value was -0.0192. As for RRIRSRPPRLPRPRPRPGDFPRP, the figure is 0.0535. Turning to RRIRMRPPRLPRPRPRPNFSPRP, the “shrunken log2 fold change” value was found to be 0.0634.

As for RRIRSRPPRLPRPRPRPLSLPRP, the “shrunken log2 fold change” value was 0.0119. For the sequence RRIRYRPPRLPRPRPRPQLMPRP, the “shrunken log2 fold change” value was -0.509.

Turning to RRIRIRPPRLPRPRPRPILMPRP, the “shrunken log2 fold change” value was -0.23. Consider RRIRLRPPRLPRPRPRPRHVPRP, for which the “shrunken log2 fold change” value was -0.127. For the sequence RRIRFRPPRLPRPRPRPVNHPRP, the “shrunken log2 fold change” value is -0.384.

Take RRIRNRPPRLPRPRPRPFYGPRP: the “shrunken log2 fold change” value was -0.107. As for RRIRGRPPRLPRPRPRPKSFPRP, the figure is 0.0944; as for RRIRPRPPRLPRPRPRPYAVPRP, -0.712.

In the case of RRIRVRPPRLPRPRPRPQMDPRP, the “shrunken log2 fold change” value was -0.297. For RRIRHRPPRLPRPRPRPYVHPRP, the “shrunken log2 fold change” value is -0.312. Regarding RRIRRRPPRLPRPRPRPDPLPRP, the “shrunken log2 fold change” value was determined as 0.119. For RRIRVRPPRLPRPRPRPWWHPRP, the “shrunken log2 fold change” value was 0.0994. For the sequence RRIRARPPRLPRPRPRPGRYPRP, the “shrunken log2 fold change” value is 0.54. Take RRIRNRPPRLPRPRPRPATQPRP: the “shrunken log2 fold change” value was -0.0108. Under RRIRYRPPRLPRPRPRPHEWPRP stands -0.0416. For RRIRGRPPRLPRPRPRPVGKPRP, the “shrunken log2 fold change” value was found to be 0.646.

Consider RRIRPRPPRLPRPRPRPQGQPRP, for which the “shrunken log2 fold change” value is 0.0372.

For RRIRCRPPRLPRPRPRPKGTPRP, the “shrunken log2 fold change” value is 0.0259.
